The target of data set [1] is Aa4CL_1 (Anthoceros agrestis, UniProt A0A6M6A6J9). In words: spectrophotometric CoA-ester formation, Michaelis-Menten. Type of data set: biochemical. The conditions noted are these: pH 7.0 potassium phosphate, 40 °C. An excerpt: spectrophotometric CoA-ester formation, Michaelis-Menten on Aa4CL_1
Substrate in data set [2]: Nc1ncnc2c1ncn2[C@@H]1O[C@H](COP(=O)(O)OP(=O)(O)OP(=O)(O)O)[C@@H](O)[C@H]1O
Briefly: purified protein. As to conditions: pH 7.0 potassium phosphate, 45 °C, co-substrates 4-hydroxybenzoic acid and CoA, MgCl2, 1 mM DTT.

Substrate in data set [3]: O=C(O)c1ccc(O)cc1
Briefly: purified protein. As to conditions: apparent Km, pH 7.0 potassium phosphate, 45 °C, standard assay […] ATP, […] MgCl2, 500 µM CoA, 1 mM DTT.

Substrate in data set [4]: CC(C)(COP(=O)(O)OP(=O)(O)OC[C@H]1O[C@@H](n2cnc3c(N)ncnc32)[C@H](O)[C@@H]1OP(=O)(O)O)[C@@H](O)C(=O)NCCC(=O)NCCS
Briefly: purified protein. It is filed as biochemical, Anthoceros agrestis. As to conditions: pH 7.0 potassium phosphate, 45 °C, co-substrates 4-hydroxybenzoic acid and ATP, MgCl2, 1 mM DTT.

Setting [5] is: standard assay […] ATP, […] MgCl2, 500 µM CoA, 1 mM DTT.
[6] abbreviates: MgCl2, hydroxycinnamic acid co-substrate not stated.

Aa4CL_1, sequence (A0A6M6A6J9 entry or part of it): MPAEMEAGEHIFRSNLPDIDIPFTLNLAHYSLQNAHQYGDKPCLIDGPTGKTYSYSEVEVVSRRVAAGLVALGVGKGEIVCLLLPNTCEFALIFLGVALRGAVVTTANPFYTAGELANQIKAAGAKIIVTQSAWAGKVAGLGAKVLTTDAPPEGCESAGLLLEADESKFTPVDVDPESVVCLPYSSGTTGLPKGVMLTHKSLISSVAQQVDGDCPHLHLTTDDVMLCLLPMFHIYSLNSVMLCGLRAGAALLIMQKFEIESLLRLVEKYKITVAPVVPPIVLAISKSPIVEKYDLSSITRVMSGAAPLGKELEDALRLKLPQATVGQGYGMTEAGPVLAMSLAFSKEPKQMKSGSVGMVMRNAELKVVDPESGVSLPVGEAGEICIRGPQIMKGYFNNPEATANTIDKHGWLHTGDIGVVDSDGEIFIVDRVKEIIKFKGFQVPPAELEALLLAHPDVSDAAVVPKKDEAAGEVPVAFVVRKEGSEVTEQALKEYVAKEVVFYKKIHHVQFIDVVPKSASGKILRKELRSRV

One may read the Km as the substrate concentration at which the rate is half of its maximum. With `O=C(O)/C=C/c1ccc(O)cc1` [4-coumaric acid], in data set [1] (setting [5]), the Km was 12.8 ± 4 µM.
On the same count and under the same terms, with `O=C(O)/C=C/c1ccccc1` [cinnamic acid] the figure was 218 ± 74.7 µM.
For `CC(C)(COP(=O)(O)OP(=O)(O)OC[C@H]1O[C@@H](n2cnc3c(N)ncnc32)[C@H](O)[C@@H]1OP(=O)(O)O)[C@@H](O)C(=O)NCCC(=O)NCCS` [CoA], in data set [1] (setting [6]), the Km is 10.2 ± 0.2 µM.
`Nc1ncnc2c1ncn2[C@@H]1O[C@H](COP(=O)(O)OP(=O)(O)OP(=O)(O)O)[C@@H](O)[C@H]1O` [ATP]: the Km in data set [1] (setting [6]) was 227 ± 31.8 µM.
Turning to `COc1cc(/C=C/C(=O)O)ccc1O` [ferulic acid], in data set [1] (setting [5]), the Km stood at 61.4 ± 21.9 µM.
Regarding `O=C(O)/C=C/c1ccc(O)c(O)c1` [caffeic acid], in data set [1] (standard assay […] ATP, […] MgCl2, 500 µM CoA, no DTT), the Km is 15.5 ± 1.9 µM.
Take `COc1ccc(/C=C/C(=O)O)cc1O` [isoferulic acid]: in data set [1] (setting [5]), the Michaelis constant (Km) came out at 9.9 ± 1.8 µM.

B1: Aa4HBCL (Anthoceros agrestis) (protein)
chain: MASLSEPEHIFRSSLPAAAIPNVTVPEYILLNAIRPEDEHRVAVVDASDERQYTYGQTRILVKNVAAGLRNLLGIRKGDVVFVLLPNTAEYFILVLGIMWAGGVYSGGNPYAHPGEIEKQIQDSEAKVVVTDSTYFEKVKQFAHQLPILLTPVSSAAPTDKSVTPNPEGSTSVQRLLEYDGSEYVPPEPISQDDLCALPYSSGTTGLSKGVKLTHRNLLANTTRTCPIPAVPPTPAQLASVKRYVVLGLLPFFHIYGTTGICCSTMRYQGTLVVLPRYDLRLMLAALIKYEVTFTPLVPPIILQMVKSPIVNEFDLSKLKLEGVMTAAAPLPPDIQKAFEARFPGVELRQAYGLTEYSCITLSHVPLGYPRGNAKKGSVGFLIPGTEMKILDPDTGKSLPANRAGEICVRGESTMNGYFKNEEATAATIDEQGWLHTGDVGYIDDDGDVFIVERAKELIKYKGFQVPPAELEAILVAHPLIADAAVIPIPDDEAGELPAACVVLAPNSHLNEEDVIRYVGAKVASYKKVRHVEFVSSIPKSLSGKTLRRVLKDDILKRLKKTENQLI
Usually Vmax stands for the rate approached at saturating substrate. What is called kcat is the number of substrate molecules converted per active site and unit of time at saturation. What is called kcat/Km is the second-order rate constant that governs catalysis at low substrate concentration. With B1, in data set [2], the Km is listed as 1175.3 ± 135.2 µM, the Vmax came to 1.4 µmol/min/mg, the kcat was found to be 1.6 s⁻¹ and the catalytic efficiency (kcat/Km) worked out at 1300 M⁻¹ s⁻¹. Also, in data set [3], the Km was 664.2 ± 1.5 µM, the Vmax came to 0.99 µmol/min/mg, the kcat is 1.1 s⁻¹ and the kcat/Km came out at 1700 M⁻¹ s⁻¹. In addition, in data set [4], the Km came to 247.8 ± 19.9 µM, the Vmax came to 1.95 µmol/min/mg, the kcat was 2.2 ± 0.1 s⁻¹ and the kcat/Km is 8700 M⁻¹ s⁻¹.

Source of the values: publication PMC7419483, “Phenolic metabolism in the hornwort Anthoceros agrestis: 4-coumarate CoA ligase and 4-hydroxybenzoate CoA ligase” (Plant Cell Reports, 2020).
